Results from patent US20240279318A1 (NANJING LEGEND BIOTECH, published 2024).
Substitutions are numbered along the chain they refer to. Read-outs that look alike come from different tables or passages of the source. Each block holds one binder with its values, some of them ahead of it.

Experiments:
[1] = target: T1, AFP158/HLA-A*02:01 complex (human); assay: SPR, KD ratio to AS170036 VL1VH1;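 note: crude scFv captured on a sensor chip, peptide–HLA complex passed over at several concentrations, association then buffer dissociation, KD derived from on- and off-rates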
T1 construct: flowed over the chip in SPR; also called AFP158 pro
Procedure: (§1) The experiment was carried out as follows. The crude scFv protein were captured onto the sensorchip. Different concentrations (320, 160, 40 nM) of AFP158/HLA-A*02:01 complex flowed over the sensorchip surface, and were allowed to bind the antibody fragment for 100 s followed by injection of the running buffer to allow dissociation of the complex. On-rate (kd) and off-rate (kd) were calculated based on association and dissociation curve, and were used to estimate the equilibrium dissociation constant (KD).

[2] = target: T1, AFP158/HLA-A*02:01 complex; assay: SPR, scFv captured, pMHC in flow;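 note: complex injected at several concentrations over crude scFv, association then running-buffer dissociation, KD estimated from kinetic on- and off-rate constants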
Procedure: as §1

[3] = target: T1, AFP158/HLA-A*02:01 complex; assay: SPR, KD ratio to AS170036 VL1VH1; remark: listed apart in the source;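 note: crude scFv captured on a sensor chip, peptide–HLA complex passed over at several concentrations, association then buffer dissociation, KD derived from on- and off-rates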
Procedure: as §1

[4] = target: T1, AFP158/HLA-A*02:01 complex; assay: SPR, scFv captured, pMHC in flow; remark: listed apart in the source;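 note: complex injected at several concentrations over crude scFv, association then running-buffer dissociation, KD estimated from kinetic on- and off-rate constants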
Procedure: as §1

B1: HD102E (scFv)
scFv: QSALTQPRSVSGSPGQSVTISCAGTSSDVGSENYVSWYQQHPGKAPKLMIYQVNKRASGVPDRFSGSKSGNTASLTISGLQAEDEADYYCASYRSSDHNIVFGGGTKLTVLGGGGSGGGGSGGGGSEVQLVESGGGLVQPGGSLRLSCAASGFTFSSYAMSWVRQAPGKGLEWVSTINSGTGSPYYADSVKGRFTISRDNSKNTLYLQMNSLRAEDTAVYYCAKNFFEGSWFLGPPAMDYWGQGTLVTVSSHHHHHH
notes: AS170036 VL1VH1 scFv mutein
Affinity increase [1]: 1.2 fold
Kd [2]: 190 nM

B3: HG56A (scFv)
scFv: B1 scFv with G182A, E228D
notes: AS170036 VL1VH1 scFv mutein
Affinity increase [1]: 1.4 fold
Kd [2]: 160 nM

B4: HG56H (scFv)
scFv: B1 scFv with G182H, E228D
notes: AS170036 VL1VH1 scFv mutein
Affinity increase [1]: 1.5 fold
Kd [2]: 150 nM

B6: HG56K (scFv)
scFv: B1 scFv with G182K, E228D
notes: AS170036 VL1VH1 scFv mutein
Affinity increase [1]: 0.7 fold
Kd [2]: 350 nM

B7: HF101W (scFv)
scFv: B1 scFv with F227W, E228D
notes: AS170036 VL1VH1 scFv mutein
Affinity increase [1]: 0.8 fold
Kd [2]: 300 nM

B10: HG56E (scFv)
scFv: B1 scFv with G182E, E228D
notes: AS170036 VL1VH1 scFv mutein
Affinity increase [1]: 1 fold
Kd [2]: 240 nM

B12: HG108L (scFv)
scFv: B1 scFv with E228D, G234L
notes: AS170036 VL1VH1 scFv mutein
Affinity increase [1]: 1.4 fold
Kd [2]: 200 nM

B13: HG56N (scFv)
scFv: B1 scFv with G182N, E228D
notes: AS170036 VL1VH1 scFv mutein; also called AS170036 VL1VH1-VHG56N
Affinity increase [1]: 2.5 fold
Kd [2]: 92 nM

B17: HG108N (scFv)
scFv: B1 scFv with E228D, G234N
notes: AS170036 VL1VH1 scFv mutein; also called AS170036 VL1VH1-VHG108N
Affinity increase [1]: 2 fold
Kd [2]: 140 nM

B18: LE32M (scFv)
scFv: B1 scFv with E32M, E228D
notes: AS170036 VL1VH1 scFv mutein
Affinity increase [3]: 0.4 fold
Kd [4]: 590 nM

B19: HG56L (scFv)
scFv: B1 scFv with G182L, E228D
notes: AS170036 VL1VH1 scFv mutein
Affinity increase [1]: 0.8 fold
Kd [2]: 290 nM

B20: HG56Q (scFv)
scFv: B1 scFv with G182Q, E228D
notes: AS170036 VL1VH1 scFv mutein
Affinity increase [1]: 1 fold
Kd [2]: 240 nM

B22: HG56M (scFv)
scFv: B1 scFv with G182M, E228D
notes: AS170036 VL1VH1 scFv mutein
Affinity increase [1]: 1.7 fold
Kd [2]: 130 nM

B23: HG108D (scFv)
scFv: B1 scFv with E228D, G234D
notes: AS170036 VL1VH1 scFv mutein; also called AS170036 VL1VH1-VHG108D
Affinity increase [1]: 5.5 fold
Kd [2]: 42 nM

B24: HF101Y (scFv)
scFv: B1 scFv with F227Y, E228D
notes: AS170036 VL1VH1 scFv mutein
Affinity increase [1]: 1.1 fold
Kd [2]: 210 nM

B25: HG56S (scFv)
scFv: B1 scFv with G182S, E228D
notes: AS170036 VL1VH1 scFv mutein
Affinity increase [1]: 1.5 fold
Kd [2]: 160 nM

B27: HG56F (scFv)
scFv: B1 scFv with G182F, E228D
notes: AS170036 VL1VH1 scFv mutein; also called AS170036 VL1VH1-VHG56F
Affinity increase [1]: 2.3 fold
Kd [2]: 98 nM

B28: LE32N (scFv)
scFv: B1 scFv with E32N, E228D
notes: AS170036 VL1VH1 scFv mutein
Affinity increase [3]: 0.4 fold
Kd [4]: 690 nM

B31: HG56D (scFv)
scFv: B1 scFv with G182D, E228D
notes: AS170036 VL1VH1 scFv mutein
Affinity increase [1]: 1 fold
Kd [2]: 230 nM

B32: HG108A (scFv)
scFv: B1 scFv with E228D, G234A
notes: AS170036 VL1VH1 scFv mutein; also called AS170036 VL1VH1-VHG108A
Affinity increase [1]: 5.5 fold
Kd [2]: 42 nM

B33: HG56W (scFv)
scFv: B1 scFv with G182W, E228D
notes: AS170036 VL1VH1 scFv mutein
Affinity increase [1]: 1.7 fold
Kd [2]: 130 nM

B34: HG108E (scFv)
scFv: B1 scFv with E228D, G234E
notes: AS170036 VL1VH1 scFv mutein; also called AS170036 VL1VH1-VHG108E
Affinity increase [1]: 4.1 fold
Kd [2]: 56 nM

B36: LE32L (scFv)
scFv: B1 scFv with E32L, E228D
notes: AS170036 VL1VH1 scFv mutein
Affinity increase [3]: 0.3 fold
Kd [4]: 980 nM

B37: HG56R (scFv)
scFv: B1 scFv with G182R, E228D
notes: AS170036 VL1VH1 scFv mutein
Affinity increase [1]: 0.8 fold
Kd [2]: 300 nM

B38: LE32Q (scFv)
scFv: B1 scFv with E32Q, E228D
notes: AS170036 VL1VH1 scFv mutein
Affinity increase [3]: 0.4 fold
Kd [4]: 570 nM

B39: LE32T (scFv)
scFv: B1 scFv with E32T, E228D
notes: AS170036 VL1VH1 scFv mutein
Affinity increase [3]: 0.3 fold
Kd [4]: 770 nM

B41: HG108Q (scFv)
scFv: B1 scFv with E228D, G234Q
notes: AS170036 VL1VH1 scFv mutein
Affinity increase [1]: 1.4 fold
Kd [2]: 200 nM

B43: HG108M (scFv)
scFv: B1 scFv with E228D, G234M
notes: AS170036 VL1VH1 scFv mutein; also called AS170036 VL1VH1-VHG108M
Affinity increase [1]: 4.7 fold
Kd [2]: 58 nM

B44: HG56T (scFv)
scFv: B1 scFv with G182T, E228D
notes: AS170036 VL1VH1 scFv mutein
Affinity increase [1]: 0.7 fold
Kd [2]: 340 nM

B47: HG56Y (scFv)
scFv: B1 scFv with G182Y, E228D
notes: AS170036 VL1VH1 scFv mutein; also called AS170036 VL1VH1-VHG56Y
Affinity increase [1]: 6.6 fold
Kd [2]: 35 nM

B50: LE32P (scFv)
scFv: B1 scFv with E32P, E228D
notes: AS170036 VL1VH1 scFv mutein
Affinity increase [3]: 0.2 fold
Kd [4]: 1400 nM

The next lines start with the values.

Affinity increase [3]: 0.3 fold
Kd [4]: 740 nM
B2: LY34V (scFv)
scFv: B1 scFv with Y34V, E228D
notes: AS170036 VL1VH1 scFv mutein

Affinity increase [3]: 0.4 fold
Kd [4]: 620 nM
B5: LY93H (scFv)
scFv: B1 scFv with Y93H, E228D
notes: AS170036 VL1VH1 scFv mutein

Affinity increase [3]: 0.1 fold
Kd [4]: 1700 nM
B8: LY34A (scFv)
scFv: B1 scFv with Y34A, E228D
notes: AS170036 VL1VH1 scFv mutein

Affinity increase [3]: 0.2 fold
Kd [4]: 1100 nM
B9: LH98D (scFv)
scFv: B1 scFv with H98D, E228D
notes: AS170036 VL1VH1 scFv mutein

Affinity increase [3]: 0.2 fold
Kd [4]: 1400 nM
B11: LY93N (scFv)
scFv: B1 scFv with Y93N, E228D
notes: AS170036 VL1VH1 scFv mutein

Affinity increase [3]: 0.3 fold
Kd [4]: 930 nM
B14: LE32V (scFv)
scFv: B1 scFv with E32V, E228D
notes: AS170036 VL1VH1 scFv mutein

Affinity increase [3]: 0.2 fold
Kd [4]: 1400 nM
B15: LY34P (scFv)
scFv: B1 scFv with Y34P, E228D
notes: AS170036 VL1VH1 scFv mutein

Affinity increase [3]: 0.2 fold
Kd [4]: 1100 nM
B16: LH98K (scFv)
scFv: B1 scFv with H98K, E228D
notes: AS170036 VL1VH1 scFv mutein

Affinity increase [3]: 0.3 fold
Kd [4]: 780 nM
B21: LY34F (scFv)
scFv: B1 scFv with Y34F, E228D
notes: AS170036 VL1VH1 scFv mutein

Affinity increase [3]: 0.2 fold
Kd [4]: 1200 nM
B26: LY93D (scFv)
scFv: B1 scFv with Y93D, E228D
notes: AS170036 VL1VH1 scFv mutein

Affinity increase [3]: 0.2 fold
Kd [4]: 1000 nM
B29: LY34S (scFv)
scFv: B1 scFv with Y34S, E228D
notes: AS170036 VL1VH1 scFv mutein

Affinity increase [3]: 0.3 fold
Kd [4]: 840 nM
B30: LY93T (scFv)
scFv: B1 scFv with Y93T, E228D
notes: AS170036 VL1VH1 scFv mutein

Affinity increase [3]: 0.3 fold
Kd [4]: 740 nM
B35: LY34D (scFv)
scFv: B1 scFv with Y34D, E228D
notes: AS170036 VL1VH1 scFv mutein

Affinity increase [3]: 0.1 fold
Kd [4]: 1700 nM
B40: LY34G (scFv)
scFv: B1 scFv with Y34G, E228D
notes: AS170036 VL1VH1 scFv mutein

Affinity increase [3]: 0.2 fold
Kd [4]: 1100 nM
B42: LY34M (scFv)
scFv: B1 scFv with Y34M, E228D
notes: AS170036 VL1VH1 scFv mutein

Affinity increase [3]: 0.1 fold
Kd [4]: 2200 nM
B45: LY34T (scFv)
scFv: B1 scFv with Y34T, E228D
notes: AS170036 VL1VH1 scFv mutein

Affinity increase [3]: 0.1 fold
Kd [4]: 1800 nM
B46: LY34I (scFv)
scFv: B1 scFv with Y34I, E228D
notes: AS170036 VL1VH1 scFv mutein

Affinity increase [3]: 0.3 fold
Kd [4]: 730 nM
B48: LY34L (scFv)
scFv: B1 scFv with Y34L, E228D
notes: AS170036 VL1VH1 scFv mutein

Affinity increase [3]: 0.2 fold
Kd [4]: 1400 nM
B49: LY34E (scFv)
scFv: B1 scFv with Y34E, E228D
notes: AS170036 VL1VH1 scFv mutein
